Here are results for 2 molecules from patent US20140349405, “RNA-DIRECTED DNA CLEAVAGE AND GENE EDITING BY CAS9 ENZYME FROM NEISSERIA MENINGITIDIS” (WISCONSIN ALUMNI RESEARCH FOUNDATION, published 2014).

Numbering of substitutions follows the chain as printed.

Data set [1] concerns the target T1, RNA polymerase sigma70 holoenzyme (Escherichia coli, UniProt P0A7Z4;P0A8V2;P0A8T7;P0A800;P00579 …). Nature of the data set: in vitro transcription, 168 nt product; 10 mM Mg, 100 mM KCl, 37 C. Conditions: tags: Epicentre, sigma-saturated; chain copies: 2,1,1,1,1.
For data set [2], the target named is T1, RNA polymerase sigma70 holoenzyme. Nature of the data set: in vitro transcription, no transcript. The settings on record: tags: Epicentre, sigma-saturated; chain copies: 2,1,1,1,1.

T1 sequence (P0A7Z4 whole entry, chain 1 of 4): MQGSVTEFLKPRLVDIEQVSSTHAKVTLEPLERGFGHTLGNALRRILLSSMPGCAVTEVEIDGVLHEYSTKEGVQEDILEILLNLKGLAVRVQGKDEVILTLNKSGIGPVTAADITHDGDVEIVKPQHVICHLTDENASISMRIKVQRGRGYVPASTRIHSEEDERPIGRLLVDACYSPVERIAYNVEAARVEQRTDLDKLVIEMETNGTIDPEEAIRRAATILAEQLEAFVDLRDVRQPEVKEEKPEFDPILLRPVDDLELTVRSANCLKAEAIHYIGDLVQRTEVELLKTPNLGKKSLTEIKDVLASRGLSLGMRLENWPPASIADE
T1 sequence (P0A8V2 whole entry, chain 2 of 4): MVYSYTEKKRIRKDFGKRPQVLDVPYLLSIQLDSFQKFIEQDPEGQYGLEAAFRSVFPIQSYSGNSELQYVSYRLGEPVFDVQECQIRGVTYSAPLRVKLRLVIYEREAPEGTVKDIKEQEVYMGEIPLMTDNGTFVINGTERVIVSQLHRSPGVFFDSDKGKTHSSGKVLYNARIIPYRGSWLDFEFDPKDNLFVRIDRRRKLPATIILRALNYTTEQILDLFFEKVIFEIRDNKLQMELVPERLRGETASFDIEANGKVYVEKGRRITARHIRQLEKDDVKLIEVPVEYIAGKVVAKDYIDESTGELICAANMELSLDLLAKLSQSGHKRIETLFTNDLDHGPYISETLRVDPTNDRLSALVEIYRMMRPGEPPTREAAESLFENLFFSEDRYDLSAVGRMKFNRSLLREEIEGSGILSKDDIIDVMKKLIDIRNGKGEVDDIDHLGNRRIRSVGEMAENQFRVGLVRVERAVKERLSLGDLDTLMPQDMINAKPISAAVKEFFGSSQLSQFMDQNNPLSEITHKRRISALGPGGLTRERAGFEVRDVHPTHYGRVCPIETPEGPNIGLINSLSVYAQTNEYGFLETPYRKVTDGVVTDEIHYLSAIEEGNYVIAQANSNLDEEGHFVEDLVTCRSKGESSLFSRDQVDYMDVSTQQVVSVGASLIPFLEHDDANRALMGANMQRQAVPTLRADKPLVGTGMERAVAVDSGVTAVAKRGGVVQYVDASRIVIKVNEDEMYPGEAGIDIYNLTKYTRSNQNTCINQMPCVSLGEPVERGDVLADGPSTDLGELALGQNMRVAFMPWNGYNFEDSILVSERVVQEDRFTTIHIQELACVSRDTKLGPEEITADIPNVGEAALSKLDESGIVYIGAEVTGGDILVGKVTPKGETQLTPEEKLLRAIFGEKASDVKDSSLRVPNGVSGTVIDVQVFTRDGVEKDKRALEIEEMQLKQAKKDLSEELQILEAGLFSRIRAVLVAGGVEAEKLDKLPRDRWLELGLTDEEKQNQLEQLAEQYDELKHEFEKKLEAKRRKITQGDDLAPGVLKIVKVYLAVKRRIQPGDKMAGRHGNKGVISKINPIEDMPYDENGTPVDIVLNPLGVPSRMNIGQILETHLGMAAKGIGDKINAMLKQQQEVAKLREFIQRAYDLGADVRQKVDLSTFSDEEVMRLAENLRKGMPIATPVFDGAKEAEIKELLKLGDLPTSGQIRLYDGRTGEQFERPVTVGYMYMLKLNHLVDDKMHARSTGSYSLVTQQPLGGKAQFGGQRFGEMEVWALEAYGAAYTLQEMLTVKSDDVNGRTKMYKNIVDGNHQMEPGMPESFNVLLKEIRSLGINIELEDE
T1 sequence (P0A800 2-91, chain 4 of 4): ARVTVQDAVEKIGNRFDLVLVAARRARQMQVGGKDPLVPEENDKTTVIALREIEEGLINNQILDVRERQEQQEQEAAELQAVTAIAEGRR
T1 sequence (P00579 whole entry, chain 5 of 4): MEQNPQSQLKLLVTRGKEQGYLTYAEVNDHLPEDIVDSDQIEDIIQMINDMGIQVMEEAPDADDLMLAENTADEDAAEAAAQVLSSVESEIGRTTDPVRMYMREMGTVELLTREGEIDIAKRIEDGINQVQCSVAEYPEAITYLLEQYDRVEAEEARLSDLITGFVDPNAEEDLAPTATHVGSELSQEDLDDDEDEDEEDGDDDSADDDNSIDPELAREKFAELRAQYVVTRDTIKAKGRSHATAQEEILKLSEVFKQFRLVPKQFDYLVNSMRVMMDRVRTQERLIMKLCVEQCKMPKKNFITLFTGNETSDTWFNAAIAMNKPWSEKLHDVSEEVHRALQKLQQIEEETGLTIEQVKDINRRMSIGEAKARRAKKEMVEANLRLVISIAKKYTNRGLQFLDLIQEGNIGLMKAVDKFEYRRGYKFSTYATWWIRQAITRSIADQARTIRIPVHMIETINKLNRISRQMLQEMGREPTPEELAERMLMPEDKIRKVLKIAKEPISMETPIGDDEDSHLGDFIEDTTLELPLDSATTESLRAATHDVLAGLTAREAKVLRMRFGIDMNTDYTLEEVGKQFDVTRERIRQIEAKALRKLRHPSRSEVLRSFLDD

B1: Neisseria CRISPR repeat promoter wt (dsDNA)
DNA 1: GTTGTAGCTCCCTTTCTCATTTCGCAGTGCTACAAT
DNA 2: ATTGTAGCACTGCGAAATGAGAAAGGGAGCTACAAC
Regarding B1, the binding result in data set [1] is recorded as “binds”.

B2: Neisseria CRISPR repeat promoter mut (dsDNA)
DNA 1: B1 DNA 1 with T31C, A32C
DNA 2: B1 DNA 2 with T5G, A6G
modifications: [31-32]
As for B2, the binding result in data set [2] is “no binding”.
